Reference: PMC6102046 (Nature structural & molecular biology, 2017)
Residue numbers refer to the chain shown, from its start. Numbers in names are those of the source.

B1: His-tagged CNPY2 wild type (natural protein, UniProt Q9QXT0 21-182, looked up)
chain: RRSQDLHCGACRALVDELEWEIARVDPKKTIQMGSFRINPDGSQSVVEVPYARSEAHLTELLEEVCDRMKEYGEQIDPSTHRKNYVRVVSRNGESSELDLQGIRIDSDISGTLKFACESIVEEYEDELIEFFSREADNVKDKLCSKRTDLCDHALHRSHDEL
B2: His-tagged CNPY2 3C-A mutant (C28A, C31A, C86A) (natural protein, UniProt Q9QXT0 21-182, looked up)
chain: B1 chain with C8A, C11A, C66A
B3: PERK LD (protein)
chain: AGRARGLPAPTAEAAFGLGAAAAPTSATRVPAAGAVAAAEVTVEDAEALPAAAGEQEPRGPEPDDETELRPRGRSLVIISTLDGRIAALDPENHGKKQWDLDVGSGSLVSSSLSKPEVFGNKMIIPSLDGALFQWDQDRESMETVPFTVESLLESSYKFGDDVVLVGGKSLTTYGLSAYSGKVRYICSALGCRQWDSDEMEQEEDILLLQRTQKTVRAVGPRSGNEKWNFSVGHFELRYIPDMETRAGFIESTFKPNENTEESKIISDVEEQEAAIMDIVIKVSVADWKVMAFSKKGGHLEWEYQFCTPIASAWLLKDGKVIPISLFDDTSYTSNDDVLEDEEDIVEAARGATENSVYLGMYRGQLYLQSSVRISEKFPSSPKALESVTNENAIIPLPTIKWKPLIHSPSRTPVLVGSDEFDKCLSNDKFSHEEYSNGALSILQYPYDNGYYLPYYKRERNKRSTQITVRFLDNPHYNKNIRKKD
B4: 6X His/T7-tagged PERK luminal domain (PERK-LD) (domain or fragment, UniProt Q9Z2B5 29-510, looked up)
chain: VAPARSLLAPASETVFGLGAAAAPTSAARVPAVATAEVTVEDAEALPAAAGEPESRATEPDDDVELRPRGRSLVIISTLDGRIAALDAENDGKKQWDLDVGSGSLVSSSLSKPEVFGNKMIIPSLDGDLFQWDRDRESMEAVPFTVESLLESSYKFGDDVVLVGGKSLITYGLSAYSGKLRYICSALGCRRWDSDEMEEEEDILLLQRTQKTVRAVGPRSGSEKWNFSVGHFELRYIPDMETRAGFIESTFKPGGNKEDSKIISDVEEQEATMLDTVIKVSVADWKVMAFSRKGGRLEWEYQFCTPIASAWLVRDGKVIPISLFDDTSYTASEEALGDEEDIVEAARGATENSVYLGMYRGQLYLQSSVRVSEKFPTSPKALESVNGENAIIPLPTIKWKPLIHSPSRTPVLVGSDEFDKCLSNDKYSHEEYSNGALSILQYPYDNGYYLPYYKRERNKRSTQITVRFLDSPHYSKNIRKKD

Key:
Test in all cases: ITC
[1] = target: B4
CNPY2 [2] = target: T1, CNPY2 (UniProt Q9Y2B0)
T1 chain: B1 chain with C8A, C11A, R24Q, V65I, C66A, S90G, R157I

CNPY2 [3] = target: T2, CNPY2 (UniProt Q9Y2B0)
T2 chain: B1 chain with R24Q, V65I, S90G, R157I

[4] = target: B1
[5] = target: B2

## B1
[1]
  Kd: 13.2 µM

## B2
[1]
  Kd: 7.5 µM

## B3
CNPY2 [2]
  Kd: 7.5 µM
CNPY2 [3]
  Kd: 13.2 µM

## B4
[4]
  stoichiometry N: 1.16
[5]
  stoichiometry N: 1.04
